Sequences and labels used below:
B9: human plasmin (protein)
chain: KVYLSECKTGNGKNYRGTMSKTKNGITCQKWSSTSPHRPRFSPATHPSEGLEENYCRNPDNDPQGPWCYTTDPEKRYDYCDILECEEECMHCSGENYDGKISKTMSGLECQAWDSQSPHAHGYIPSKFPNKNLKKNYCRNPDRELRPWCFTTDPNKRWELCDIPRCTTPPPSSGPTYQCLKGTGENYRGNVAVTVSGHTCQHWSAQTPHTHNRTPENFPCKNLDENYCRNPDGKRAPWCHTTNSQVRWEYCKIPSCDSSPVSTEQLAPTAPPELTPVVQDCYHGDGQSYRGTSSTTTTGKKCQSWSSMTPHRHQKTPENYPNAGLTMNYCRNPDADKGPWCFTTDPSVRWEYCNLKKCSGTEASVVAPPPVVLLPDVETPSEEDCMFGNGKGYRGKRATTVTGTPCQDWAAQEPHRHSIFTPETNPRAGLEKNYCRNPDGDVGGPWCYTTNPRKLYDYCDVPQCAAPSFDCGKPQVEPKKCPGRVVGGCVAHPHSWPWQVSLRTRFGMHFCGGTLISPEWVLTAAHCLEKSPRPSSYKVILGAHQEVNLEPHVQEIEVSRLFLEPTRKDIALLKLSSPAVITDKVIPACLPSPNYVVADRTECFITGWGETQGTFGAGLLKEAQLPVIENKVCNRYEFLNGRVQSTELCAGHLAGGTDSCQGDSGGPLVCFEKDKYILQGVTSWGLGCARPNKPGVYVRVSRFVTWIEGVMRNN

Where only a bound is given, the exact number is not on record here.

Assay [1] deals with B9.
The target of assay [2] is B9.
Another assay deals with BPTI (Bos taurus).

B1: SPI11 (protein)
chain: MHSFCAFKAETGPCRARFDRWFFNIFTRQCEEFIYGGCEGNQNRFESLEECKKMCTRD
Broadly, the Kd is the concentration at which binding is half-saturated. A high value points to a looser complex. Broadly, the Ki is the dissociation constant of the complex between target and ligand, obtained from inhibition or displacement. The low end stands for higher affinity, the high end for lower affinity. B1: binding with human plasmin [1] was put at a Kd of 88 pM. The Ki with human plasmin [2] amounted to 88 pM.

B2: SPI22 (protein)
chain: MHSFCAFKADGGPCKGKFPRFFFNIFTRQCEEFIYGGCEGNQNRFESLEECKKMCTRD
B2: the equilibrium dissociation constant (Kd) with human plasmin [1] is > 2000 pM.

B3: SPI43 (protein)
chain: MHSFCAFKAETGPCRGKFDRWFFNIFTRQCESFHYGGCKGNQNRFESLEECKKMCTRD
As for B3, in the assay with human plasmin [1], the equilibrium dissociation constant (Kd) was > 4000 pM.

B4: SPI47 (protein)
chain: MHSFCAFKADAGPCRAKFERFFFNIFTRQCEEFIYGGCEGNQNRFESLEECKKMCTRD
Take B4: the Kd with human plasmin [1] was ~800 pM.

B5: SPI54 (protein)
chain: MHSFCAFKADSGPCRARFDRWFFNIFTRQCTRFPYGGCGGNQNRFESLEECKKMCTRD
In the case of B5, the Kd in the assay with human plasmin [1] was > 4000 pM.

B6: SPI23 (protein)
chain: MHSFCAFKAEGGPCRAKFQRWFFNIFTRQCEEFIYGGCEGNQNRFESLEECKKMCTRD
As for B6, the Kd in the assay with human plasmin [1] is ~500 pM.

B7: QS4 (protein)
chain: MHSFCAFKADDGPCKARFERFFFNIFTRQCEQFYYGGCDGNQNRFESLEECKKMCTRD
Regarding B7, in the assay with human plasmin [1], the Kd was 2000 pM.

B8: SPI51 (protein)
chain: MHSFCAFKADAGPCRAKFERFFFNIFTRQCTAFFYGGCGGNQNRFESLEECKKMCTRD
Take B8: in the assay with human plasmin [1], the dissociation constant Kd is ~500 pM.
Regarding B9, binding with BPTI was put at a Kd of 300 pM.

Values taken from US20050186649 (published 2005).
